Results as given in patent publication US20100272817A1.
Square brackets hold non-standard residues; d marks the D form. Ends that are not written are not given here.

Molecular target: cholesterol ester hydrolase (CEH)

in vivo macrophage cholesterol export ([3H]-cholesterol in plasma 5 hours after peptide injection): 2.5 fold
Binder: [dR][dF][dH][dN][dP][dD][dK]G[dS][dR]G[dW][dE][dN][dA][dA][dQ][dD][dA] (also: retro-inverso peptide) [retro-inversal D amino acid peptide … (D-form; SEQ ID NO:3)]
